Positions of bridges follow the written chain, without caps; N, C: chain ends. Non-standard residues stand in square brackets, D forms with d. Phe(3,4-Cl2) = N[C@@H](Cc1ccc(Cl)c(Cl)c1)C(=O)O; Phe(4-CN) = N#Cc1ccc(C[C@H](N)C(=O)O)cc1; 1Nal = N[C@@H](Cc1cccc2ccccc12)C(=O)O; Hyp = O=C(O)[C@@H]1C[C@@H](O)CN1; Thz = O=C(O)[C@@H]1CSCN1; Aib = CC(C)(N)C(=O)O; Sar = CNCC(=O)O
B1: Chem. 7 (peptide)
peptide: cyclo(AAH[dF]RWAAH[dF]RW)
SMILES: C[C@@H]1NC(=O)[C@H](C)NC(=O)[C@H](Cc2c[nH]c3ccccc23)NC(=O)[C@H](CCCNC(=N)N)NC(=O)[C@@H](Cc2ccccc2)NC(=O)[C@H](Cc2c[nH]cn2)NC(=O)[C@H](C)NC(=O)[C@H](C)NC(=O)[C@H](Cc2c[nH]c3ccccc23)NC(=O)[C@H](CCCNC(=N)N)NC(=O)[C@@H](Cc2ccccc2)NC(=O)[C@H](Cc2c[nH]cn2)NC1=O
notes: also called c[Ala-Ala-His-D-Phe-Arg-Trp-Ala-Ala-His-D-Phe-Arg-Trp]
B2: Chem. 65 (peptide)
peptide: cyclo(CAH[dF]R[Phe(4-CN)]CAKKKW)
modifications: disulfide 1-7
SMILES: C[C@@H]1NC(=O)[C@@H]2CSSC[C@H](NC(=O)[C@H](Cc3ccc(C#N)cc3)NC(=O)[C@H](CCCNC(=N)N)NC(=O)[C@@H](Cc3ccccc3)NC(=O)[C@H](Cc3c[nH]cn3)NC1=O)C(=O)N[C@@H](C)C(=O)N[C@@H](CCCCN)C(=O)N[C@@H](CCCCN)C(=O)N[C@@H](CCCCN)C(=O)N[C@@H](Cc1c[nH]c3ccccc13)C(=O)N2
notes: also called c[c[Cys-Ala-His-D-Phe-Arg-4-CN-Phe-Cys]-Ala-Lys-Lys-Lys-Trp]
B3: Chem. 66 (peptide)
peptide: cyclo(CAH[dF]R[Phe(3,4-Cl2)]CAKKKW)
modifications: disulfide 1-7
SMILES: C[C@@H]1NC(=O)[C@@H]2CSSC[C@H](NC(=O)[C@H](Cc3ccc(Cl)c(Cl)c3)NC(=O)[C@H](CCCNC(=N)N)NC(=O)[C@@H](Cc3ccccc3)NC(=O)[C@H](Cc3c[nH]cn3)NC1=O)C(=O)N[C@@H](C)C(=O)N[C@@H](CCCCN)C(=O)N[C@@H](CCCCN)C(=O)N[C@@H](CCCCN)C(=O)N[C@@H](Cc1c[nH]c3ccccc13)C(=O)N2
notes: also called c[c[Cys-Ala-His-D-Phe-Arg-3,4-DiCl-Phe-Cys]-Ala-Lys-Lys-Lys-Trp]
B4: Chem. 64 (peptide)
peptide: cyclo(CAH[dF]R[1Nal]CAKKKW)
modifications: disulfide 1-7
SMILES: C[C@@H]1NC(=O)[C@@H]2CSSC[C@H](NC(=O)[C@H](Cc3cccc4ccccc34)NC(=O)[C@H](CCCNC(=N)N)NC(=O)[C@@H](Cc3ccccc3)NC(=O)[C@H](Cc3c[nH]cn3)NC1=O)C(=O)N[C@@H](C)C(=O)N[C@@H](CCCCN)C(=O)N[C@@H](CCCCN)C(=O)N[C@@H](CCCCN)C(=O)N[C@@H](Cc1c[nH]c3ccccc13)C(=O)N2
notes: also called c[c[Cys-Ala-His-D-Phe-Arg-1-Nal-Cys]-Ala-Lys-Lys-Lys-Trp]
B5: Chem. 63 (peptide)
peptide: XAHFRWCAHXRW
modifications: Pen 1; D-Phe 4, 10; disulphide Pen1-Cys7; head-to-tail amide Pen1-Trp12
notes: also called c[c[Pen-Ala-His-D-Phe-Arg-Trp-Cys]-Ala-His-D-Phe-Arg-Trp]
B6: Chem. 61 (peptide)
peptide: cyclo(C[Aib]H[dF]HWCAKKKW)
modifications: disulfide 1-7
SMILES: C[C@@H]1NC(=O)[C@@H]2CSSC[C@H](NC(=O)[C@H](Cc3c[nH]c4ccccc34)NC(=O)[C@H](CCCCN)NC(=O)[C@H](CCCCN)NC(=O)[C@H](CCCCN)NC1=O)C(=O)NC(C)(C)C(=O)N[C@@H](Cc1c[nH]cn1)C(=O)N[C@H](Cc1ccccc1)C(=O)N[C@@H](Cc1c[nH]cn1)C(=O)N[C@@H](Cc1c[nH]c3ccccc13)C(=O)N2
notes: also called c[c[Cys-Aib-His-D-Phe-His-Trp-Cys]-Ala-Lys-Lys-Lys-Trp]
B7: Chem. 100 (peptide)
peptide: cyclo(C[Thz]H[dF]HWCAKKKR)
modifications: disulfide 1-7
SMILES: C[C@@H]1NC(=O)[C@@H]2CSSC[C@H](NC(=O)[C@H](CCCNC(=N)N)NC(=O)[C@H](CCCCN)NC(=O)[C@H](CCCCN)NC(=O)[C@H](CCCCN)NC1=O)C(=O)N1CSC[C@H]1C(=O)N[C@@H](Cc1c[nH]cn1)C(=O)N[C@H](Cc1ccccc1)C(=O)N[C@@H](Cc1c[nH]cn1)C(=O)N[C@@H](Cc1c[nH]c3ccccc13)C(=O)N2
notes: also called c[c[Cys-THAZ-His-D-Phe-His-Trp-Cys]-Ala-Lys-Lys-Lys-Arg]
B8: Chem. 109 (peptide)
peptide: cyclo(C[Thz]H[dF]HWCAAKAW)
modifications: disulfide 1-7
SMILES: C[C@@H]1NC(=O)[C@H](C)NC(=O)[C@@H]2CSSC[C@H](NC(=O)[C@H](Cc3c[nH]c4ccccc34)NC(=O)[C@H](C)NC(=O)[C@H](CCCCN)NC1=O)C(=O)N1CSC[C@H]1C(=O)N[C@@H](Cc1c[nH]cn1)C(=O)N[C@H](Cc1ccccc1)C(=O)N[C@@H](Cc1c[nH]cn1)C(=O)N[C@@H](Cc1c[nH]c3ccccc13)C(=O)N2
notes: also called c[c[Cys-THAZ-His-D-Phe-His-Trp-Cys]-Ala-Ala-Lys-Ala-Trp]
B9: Chem. 74 (peptide)
peptide: cyclo(C[Sar]H[dF]HWCAKKKR)
modifications: disulfide 1-7
SMILES: C[C@@H]1NC(=O)[C@@H]2CSSC[C@H](NC(=O)[C@H](CCCNC(=N)N)NC(=O)[C@H](CCCCN)NC(=O)[C@H](CCCCN)NC(=O)[C@H](CCCCN)NC1=O)C(=O)N(C)CC(=O)N[C@@H](Cc1c[nH]cn1)C(=O)N[C@H](Cc1ccccc1)C(=O)N[C@@H](Cc1c[nH]cn1)C(=O)N[C@@H](Cc1c[nH]c3ccccc13)C(=O)N2
notes: also called c[c[Cys-Sar-His-D-Phe-His-Trp-Cys]-Ala-Lys-Lys-Lys-Arg]
B10: Chem. 110 (peptide)
peptide: cyclo(C[Thz]H[dF]HWCAKKAW)
modifications: disulfide 1-7
SMILES: C[C@@H]1NC(=O)[C@H](CCCCN)NC(=O)[C@H](CCCCN)NC(=O)[C@H](C)NC(=O)[C@@H]2CSSC[C@H](NC(=O)[C@H](Cc3c[nH]c4ccccc34)NC1=O)C(=O)N1CSC[C@H]1C(=O)N[C@@H](Cc1c[nH]cn1)C(=O)N[C@H](Cc1ccccc1)C(=O)N[C@@H](Cc1c[nH]cn1)C(=O)N[C@@H](Cc1c[nH]c3ccccc13)C(=O)N2
notes: also called c[c[Cys-THAZ-His-D-Phe-His-Trp-Cys]-Ala-Lys-Lys-Ala-Trp]
B11: Chem. 97 (peptide)
peptide: cyclo(C[Hyp]H[dF]HWCAKKKR)
modifications: disulfide 1-7
SMILES: C[C@@H]1NC(=O)[C@@H]2CSSC[C@H](NC(=O)[C@H](CCCNC(=N)N)NC(=O)[C@H](CCCCN)NC(=O)[C@H](CCCCN)NC(=O)[C@H](CCCCN)NC1=O)C(=O)N1C[C@H](O)C[C@H]1C(=O)N[C@@H](Cc1c[nH]cn1)C(=O)N[C@H](Cc1ccccc1)C(=O)N[C@@H](Cc1c[nH]cn1)C(=O)N[C@@H](Cc1c[nH]c3ccccc13)C(=O)N2
notes: also called c[c[Cys-Hyp-His-D-Phe-His-Trp-Cys]-Ala-Lys-Lys-Lys-Arg]
B12: Chem. 58 (peptide)
peptide: cyclo(CAH[dF]K(Ac)WCAK[dK]KW)
modifications: disulfide 1-7
SMILES: CC(=O)NCCCC[C@@H]1NC(=O)[C@@H](Cc2ccccc2)NC(=O)[C@H](Cc2c[nH]cn2)NC(=O)[C@H](C)NC(=O)[C@@H]2CSSC[C@H](NC(=O)[C@H](Cc3c[nH]c4ccccc34)NC1=O)C(=O)N[C@@H](C)C(=O)N[C@@H](CCCCN)C(=O)N[C@H](CCCCN)C(=O)N[C@@H](CCCCN)C(=O)N[C@@H](Cc1c[nH]c3ccccc13)C(=O)N2
notes: also called c[c[Cys-Ala-His-D-Phe-AcLys-Trp-Cys]-Ala-Lys-D-Lys-Lys-Trp]

target: T1, human melanocortin 4 receptor (human, UniProt P32245 1-332); assay: cell-based or functional assay
T1 sequence (P32245 whole entry): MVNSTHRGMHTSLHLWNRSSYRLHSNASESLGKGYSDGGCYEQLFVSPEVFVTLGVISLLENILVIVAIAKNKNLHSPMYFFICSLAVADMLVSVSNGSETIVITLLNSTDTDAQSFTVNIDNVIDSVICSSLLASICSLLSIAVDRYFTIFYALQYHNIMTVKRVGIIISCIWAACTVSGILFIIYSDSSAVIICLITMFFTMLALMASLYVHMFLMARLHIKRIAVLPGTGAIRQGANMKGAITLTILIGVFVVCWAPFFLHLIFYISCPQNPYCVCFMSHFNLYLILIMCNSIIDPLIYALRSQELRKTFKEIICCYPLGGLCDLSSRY

Row | Binder | MC4R cAMP EC50 [pM]
1 | B1 | 60
2 | B2 | 420
3 | B3 | 10
4 | B4 | 30
5 | B5 | 20
6 | B6 | 310
7 | B7 | 20
8 | B8 | 150
9 | B9 | 290
10 | B10 | 50
11 | B11 | 190
12 | B12 | 110

target: human melanocortin 1 receptor (human, UniProt Q01726 1-317); assay: cell-based or functional assay
Sequence (Q01726 whole entry): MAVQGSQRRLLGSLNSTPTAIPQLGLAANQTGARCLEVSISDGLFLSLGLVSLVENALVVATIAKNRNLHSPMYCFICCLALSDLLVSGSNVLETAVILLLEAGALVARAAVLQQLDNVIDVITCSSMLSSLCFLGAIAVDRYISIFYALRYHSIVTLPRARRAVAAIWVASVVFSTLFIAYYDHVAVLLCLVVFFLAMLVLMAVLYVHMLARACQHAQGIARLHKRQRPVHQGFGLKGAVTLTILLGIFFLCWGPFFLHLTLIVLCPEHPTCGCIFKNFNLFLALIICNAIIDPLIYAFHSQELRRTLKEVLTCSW

Row | Binder | MC1R cAMP EC50 [pM]
13 | B1 | 4560
14 | B2 | 10800
15 | B3 | 220
16 | B4 | 4230
17 | B5 | 840
18 | B6 | > 1000
19 | B7 | 18500
20 | B8 | > 7000
21 | B9 | > 5500
22 | B10 | 63300
23 | B11 | 23100
24 | B12 | 3930

target: T1, human melanocortin 4 receptor; assay: competition with 125-NDP-α-MSH, BHK human MC4R membranes
Method: In order to assess the binding affinity of the selected compounds for the human MC4R competitive binding assays was performed with radiolabeled NDP-alpha MSH (¹²⁵NDP-α-MSH).
The assay was performed in 96-well filterplates (Unifilter) using BHK cells stably expressing the human MC4 receptor.
The BHK cell membranes were prepared from frozen or fresh cells that were homogenized in 20 mM HEPES pH 7.1, 5 mM MgCl₂, 1 mg/ml bacitracin (buffer 1) and centrifuged at 15000 rpm at 4° C., 10 min in a Sorvall RC 5B plus, SS-34 rotor. The supernatant was discarded, and the pellets were re-suspended in buffer 1, homogenized and centrifuged two more times. The final pellets were re-suspended in buffer 1 and the protein concentration was measured and adjusted with buffer 1 to 5 mg/ml and the membrane preparation was kept at −80° C. until assay. The assay was run on a dilution of this cell membrane suspension without any further preparation. The suspension was diluted to give maximally 10% specific binding, i.e. to approx. 50-100 fold dilution, optimized after each membrane preparation. The assay was performed in a total volume of 200 μl: 50 μl of cell suspension, 50 μl of ¹²⁵NDP-α-MSH (apx. […] in final concentration), 50 μl of test compound and 50 μl binding buffer were mixed and incubated for 2 h at 25° C. (binding buffer: 25 mM HEPES, pH 7.0, 1 mM CaCl₂), 1 mM MgSO₄, 1 mM EGTA, 0.005% Tween™ 20 and 0.1% HSA or, alternatively, 0.1% ovalbumin (Sigma; catalogue No. A-5503)). Test compounds were dissolved in 100% DMSO and diluted in binding buffer in a dose range from 1 μM to 0.001 nM. Radiolabelled ligand and membranes were diluted in binding buffer. The incubation was stopped by dilution with 8×100 μl ice-cold 0.9% NaCl. The radioactivity retained on the filters was counted using a Packard Topcounter. The data were analysed by non-linear regression analysis of binding curves, using the Windows™ program GraphPad™ Prism (GraphPad Software, USA).

Row | Binder | Ki [pM]
25 | B1 | 470
26 | B2 | 470
27 | B3 | 30
28 | B4 | 90
29 | B5 | 80
30 | B6 | 220
31 | B7 | 40
32 | B8 | 300
33 | B9 | 80
34 | B10 | 90
35 | B11 | 50
36 | B12 | 90
